Each block holds one molecule with its values, some of them ahead of it.
Experiments:
[1] = test system: A549 cells (IGF2R positive); assay: Internalization in A549 cells (acid wash, confocal); assay type: cell-based, human; conditions: 25 nM VHH conjugated to Alexa Fluor 647
Experimental: (§1) To assess if monovalent 13F11 and biparatopic 13F11-13E8 are internalized in the hIGF2R expressing cells, A549 cells (FIG. 16A) and NIH 3T3 2.2 cells transiently transfected with hIGF2R (FIG. 16B) were incubated with 25 nM VHH conjugated to Alexa Fluor 647 (conjugation method as described in example 9.2). A Mouse anti-IGF2R mAb was included to detect IGF2R expression on the hIGF2R transfected cells NIH 3T3 2.2 (FIG. 16B, right column), the mAb was detected with a goat anti-mouse mAb conjugated to Alexa Fluor 555. Additionally, mock transfected NIH 3T3 2.2 cells were incubated with 13F11 and 13F11-13E8 (FIG. 16C). […]
(§2) (FIG. 10D). […] The rate of internalization (endocytic rate constant, ke) of biparatopic constructs 13F11-13E8 and 13E8-13F11 was determined with a kinetic internalization assay on SCC-VII cells transfected with hIGF2R and rIGF2R. […] Subsequently, cells were washed with cold PBS and the non-internalized VHH construct (bound fraction) was separated from the internalized construct (internalized fraction) using an acid-wash, as described above, after which the fluorescence of both fractions were measured. […] Internalization was also observed in rIGF2R expressing SCC cells as a clear increase in fluorescence over time can be shown in FIG. 17 (ke around 0.7 min-1).

[2] = target: T1, hIGF2R-ECD (Homo sapiens, UniProt P11717); assay: Binding assay / titration ELISA on recombinant hIGF2R-ECD; conditions: construct conjugated to Alexa Fluor 647, direct read out; KD+SEM, n=2; read-out: calculated affinity (KD)
T1 construct: recombinant human extracellular domain of IGF2R (hIGF2R-ECD)
Experimental: The 15 unique hIGF2R binders (Example 1.1, FIG. 2) were produced and purified as described in examples 2 and 3. The apparent affinities were determined with binding assays on hIGF2R-ECD. Briefly, three-fold serial VHH dilutions, starting from 1 μM, were added onto hIGF2R-ECD coated plates. After 2 hours of incubation, plates were washed and bound VHH was detected using a VHH-specific IgG antibody, followed by an IRD800CW-conjugated IgG-specific antibody. […] VHH 13F11 was also produced with a C-terminal free cysteine and conjugated using maleimide chemistry to Alexa Fluor 647 (13F11-A647 in FIG. 8A, conjugation method as described in example 9.2). A titration ELISA (direct read out at 647 nm) with this construct was carried out on hIGF2R-ECD to determine whether the affinity was affected after site directed conjugation (FIG. 8B). The KD and Bmax were calculated in Graphpad (version 8.3), using one-site specific binding analysis (FIG. 8C).
Based on their high affinity and binding to non-overlapping receptor epitopes, VHHs 13F11 and 13E8 were selected for the design of biparatopic and bivalent VHH constructs. Two VHHs were fused with a flexible linker, consisting of three Gly-Gly-Gly-Gly-Ser repeats (FIG. 8A). The sequences were codon optimized for expression in E. coli and obtained as synthesized DNA fragments from GeneArt. The DNA fragments encoding VHHs were cloned into a vector pET28-based vector introducing a C-terminal free cysteine for site-directed conjugation and His6 tag for IMAC purification (FIG. 8A). The constructs were produced and purified as described in example 3. The constructs were conjugated to Alexa Fluor 647 (conjugation method as described in example 9.2) and titration ELISAs on recombinant hIGF2R-ECD (as described in example 4.1) were performed to determine the KD and Bmax (calculated in Graphpad (version 8.3), using one-site specific binding analysis) (FIG. 8C).
Next, 13F11-13E8 was genetically re-engineered to include an in vivo half-life extender in the form of an albumin binding domain (ABD) as described by Johansson et al (Structure, specificity, and mode of interaction for bacterial albumin-binding modules, J. Biol. Chem. 2002 (277): 8114-8120) and subsequently produced and purified as described in Example 3. Subsequently, 13F11-13E8-ABD was conjugated to IRDye800CW (F11E8-ABD-IRD800, conjugation method as described in example 9.2) and the binding affinities of the biparatopic VHH as well as the ABD unit was determined. […] The binding affinity (KD) of F11-E8-ABD-IRD800 to rat serum albumin (RSA) was 30 nM and to mouse serum albumin (MSA) and human serum albumin (HSA) the binding affinity was approximately 200 nM.

[3] = test system: hIGF2R expressing SCC cells; assay: Kinetic internalization assay on hIGF2R expressing SCC cells; assay type: cell-based, human; conditions: 10 nM IRD800CW conjugate, 37° C., up to 12 minutes
Experimental: (§3) (FIG. 10D). […] The differences in internalization are possibly related to the differences in IGF2R expression levels on the target cells. […] Summarizing, biparatopic 13F11-13E8 clearly internalizes in cells expressing hIGF2R on the cell surface. The rate of internalization (endocytic rate constant, ke) of biparatopic constructs 13F11-13E8 and 13E8-13F11 was determined with a kinetic internalization assay on SCC-VII cells transfected with hIGF2R and rIGF2R. Briefly, 10 nM of IRD800CW conjugated 13F11-13E8 or 13E8-13F11 (conjugation method as described in example 9.2) was added to hIGF2R expressing SCC cells or rIGF2R expressing SCC cells and incubated at 37° C. for different time points up to 12 minutes. Internalization was then purposely halted by putting the cells on ice. Subsequently, cells were washed with cold PBS and the non-internalized VHH construct (bound fraction) was separated from the internalized construct (internalized fraction) using an acid-wash, as described above, after which the fluorescence of both fractions were measured. Both constructs internalize with similar endocytic rate constants (ke around 1.5 min-1) in the hIGF2R expressing SCC cells (FIG. 17). Internalization was also observed in rIGF2R expressing SCC cells as a clear increase in fluorescence over time can be shown in FIG. 17 (ke around 0.7 min-1).

[4] = test system: NIH 3T3 2.2 cells transiently transfected with hIGF2R; assay: Internalization in NIH 3T3 2.2 cells transiently transfected with hIGF2R; assay type: cell-based, human; conditions: 25 nM VHH conjugated to Alexa Fluor 647
Experimental: as §1, §2

[5] = In vivo pharmacokinetics in healthy Sprague-Dawley rats (serum ELISA); parameters: species or system rat; conditions: rat, i.v., approximately 3 mg/kg; LOD approximately 20 nM
Experimental: The in vivo pharmacokinetic properties of 13F11-13E8-ABD was compared to 13F11-13E8 without the ABD moiety in healthy Sprague-Dawley rats. In brief, rats were dosed intravenously with approximately 3 mg/kg body weight and blood samples were taken at different time points and the concentration of the VHH constructs were determined using an ELISA on immobilized hIGF2R-ECD.

[6] = test system: activated HSCs LX-2; assay: Internalization in living LX-2 cells with pHrodo red conjugates; assay type: cell-based, human; conditions: 50 nM pHrodo-red conjugate
Excerpt: Internalization of monovalent 13F11 and biparatopics 13F11-13E8 and 13E8-13F11 in living activated HSCs LX-2 was visualized using the pHrodo pH dependent probe (ThermoFisher Scientific). The pH probe becomes more fluorescent as the pH of the surroundings decreases accordingly. Endosomes and lysosomes have a pH maintained at 6.5 and 4.5, respectively, compared to cytoplasmic pH of 7.0, and thus internalization of a VHH-pHrodo construct can be visualized when it internalizes via the endosomal pathway. LX-2 cells were incubated at 37° C. for 2 hours with 50 nM of pHrodo-red conjugated 13F11, 13F11-13E8 and 13E8-13F11 (conjugation method as described in example 9.2). Images were taken at 5 min. intervals using a wide-field PEXScope microscope (Nikon) with a mCherry filter and 40× oil objective. […] Additionally, both internalized 13F11-13E8 and 13E8-13F11 accumulate into perinuclear compartments (endosomes/lysosomes).

[7] = test system: rIGF2R expressing SCC cells; assay: Kinetic internalization assay on rIGF2R expressing SCC cells; assay type: cell-based, rat; conditions: 10 nM IRD800CW conjugate, 37° C., up to 12 minutes
Experimental: as §3

[8] = test system: mock transfected NIH 3T3 2.2 cells; assay: Internalization in mock transfected NIH 3T3 2.2 cells; assay type: cell-based; conditions: 25 nM VHH conjugated to Alexa Fluor 647
Experimental: as §1, §2

[9] = test system: primary activated rat hepatic stellate cells (HSCs); assay: Binding (staining) to primary activated rat hepatic stellate cells; assay type: cell-based; conditions: 50 nM, HSCs from BDL rat, 6 days in culture
Experimental: The cross-reactivity of F11-E8-ABD was further evaluated in binding experiments to primary activated rat hepatic stellate cells (HSCs) by conjugating the construct to Alexa Fluor 488 (FE-A-A488, conjugation method as described in example 9.2). Activated HSCs were obtained from a perfused liver of a cirrhotic bile duct ligated (BDL) rat, the HSCs were isolated using density gradient centrifugation. Cells were kept in culture for 6 days to allow complete activation and then stained with 50 nM FE-A-A488. Activation was determined by an additional staining with alpha-smooth muscle actin (a-SMA).

[10] = target: T2, rPDGFRB (Rattus norvegicus, UniProt Q05030); assay: Binding assay on SCC VII cells transfected with rPDGFRB; conditions: IRDye800CW conjugate, read-out: binding affinity (KD) to rPDGFRB
T2 construct: GFP; expressed in transfected cells; host or cells: SCC VII cells
T2 sequence (Q05030 32-1097): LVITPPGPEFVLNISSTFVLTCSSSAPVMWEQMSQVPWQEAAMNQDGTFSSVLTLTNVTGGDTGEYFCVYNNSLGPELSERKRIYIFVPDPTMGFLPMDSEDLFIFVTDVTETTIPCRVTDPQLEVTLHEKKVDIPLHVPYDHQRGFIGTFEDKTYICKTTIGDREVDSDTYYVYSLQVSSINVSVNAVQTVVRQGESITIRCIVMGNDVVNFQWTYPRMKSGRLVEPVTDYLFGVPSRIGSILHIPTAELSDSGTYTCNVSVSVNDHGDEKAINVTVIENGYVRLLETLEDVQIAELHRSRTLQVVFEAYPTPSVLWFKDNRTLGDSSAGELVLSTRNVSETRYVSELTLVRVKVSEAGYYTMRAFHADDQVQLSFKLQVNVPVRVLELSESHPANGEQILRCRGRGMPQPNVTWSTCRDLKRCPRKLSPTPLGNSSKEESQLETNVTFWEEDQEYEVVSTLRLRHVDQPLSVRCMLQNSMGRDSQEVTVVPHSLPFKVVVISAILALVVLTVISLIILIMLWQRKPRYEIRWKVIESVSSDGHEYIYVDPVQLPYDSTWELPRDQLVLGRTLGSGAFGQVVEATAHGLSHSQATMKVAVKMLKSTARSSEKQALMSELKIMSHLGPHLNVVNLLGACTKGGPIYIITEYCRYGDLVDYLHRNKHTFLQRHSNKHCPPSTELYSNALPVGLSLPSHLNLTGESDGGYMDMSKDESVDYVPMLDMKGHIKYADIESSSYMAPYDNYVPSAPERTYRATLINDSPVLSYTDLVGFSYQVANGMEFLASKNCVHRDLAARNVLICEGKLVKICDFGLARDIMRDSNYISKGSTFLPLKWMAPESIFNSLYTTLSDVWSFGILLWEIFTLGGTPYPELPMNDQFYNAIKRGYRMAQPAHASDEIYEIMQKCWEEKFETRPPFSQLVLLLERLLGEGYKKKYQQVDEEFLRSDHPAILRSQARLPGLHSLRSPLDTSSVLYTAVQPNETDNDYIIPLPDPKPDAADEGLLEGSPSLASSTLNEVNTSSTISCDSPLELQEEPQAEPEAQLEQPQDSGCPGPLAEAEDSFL
Experimental: (§4) Based on their high affinity and binding to non-overlapping hPDGRB epitopes, VHHs SPO2P, SP12P SP14P and SP26P were selected for the design of biparatopic VHH constructs and produced in a similar way as described in example 6.1. (FIG. 15A). The binding affinities of the biparatopic constructs were determined with an ELISA assay with the periplasm (FIG. 15A). Moreover, based on their high affinity and binding to non-overlapping rPDGRB epitopes, VHHs SP26P and SP28P were selected for the design of a biparatopic VHH construct and produced in a similar way as described in example 6.1. The formed biparatopic SP28P-SP26P was conjugated to IRDye800CW (SP28P-SP26P-IRDye800CW conjugation method as described in example 9.2) and subjected to a binding assay SCC VII cells transfected with hPDGFRB, rPDGFRB or hIGF2R were performed (FIG. 15B). […] In order to create a biparatopic VHH construct which is cross-reactive for hPDGFRB and rPDGFRB, VHH SPO2P binding to hPDGFRB and VHH SPO26P binding to rPDGFRB were selected and the biparatopic construct SPO2P-SP26P was produced in a similar way as described in example 6.1. (FIG. 15C). Construct SPO2P-SP26P was conjugated to IRDye800CW (SP02P-SP26P-IRDye800CW, conjugation method as described in example 9.2) and subjected to bindings assays on SCC VII cells transfected with hPDGFRB, rPDGFRB or hIGF2R were performed (FIG. 15C). […]

[11] = target: T3, hPDGFRB (Homo sapiens, UniProt P09619); assay: Binding assay on SCC VII cells transfected with hPDGFRB; conditions: relative to rPDGFRB
T3 construct: GFP; expressed in transfected cells; host or cells: SCC VII cells
T3 sequence (P09619 33-1106): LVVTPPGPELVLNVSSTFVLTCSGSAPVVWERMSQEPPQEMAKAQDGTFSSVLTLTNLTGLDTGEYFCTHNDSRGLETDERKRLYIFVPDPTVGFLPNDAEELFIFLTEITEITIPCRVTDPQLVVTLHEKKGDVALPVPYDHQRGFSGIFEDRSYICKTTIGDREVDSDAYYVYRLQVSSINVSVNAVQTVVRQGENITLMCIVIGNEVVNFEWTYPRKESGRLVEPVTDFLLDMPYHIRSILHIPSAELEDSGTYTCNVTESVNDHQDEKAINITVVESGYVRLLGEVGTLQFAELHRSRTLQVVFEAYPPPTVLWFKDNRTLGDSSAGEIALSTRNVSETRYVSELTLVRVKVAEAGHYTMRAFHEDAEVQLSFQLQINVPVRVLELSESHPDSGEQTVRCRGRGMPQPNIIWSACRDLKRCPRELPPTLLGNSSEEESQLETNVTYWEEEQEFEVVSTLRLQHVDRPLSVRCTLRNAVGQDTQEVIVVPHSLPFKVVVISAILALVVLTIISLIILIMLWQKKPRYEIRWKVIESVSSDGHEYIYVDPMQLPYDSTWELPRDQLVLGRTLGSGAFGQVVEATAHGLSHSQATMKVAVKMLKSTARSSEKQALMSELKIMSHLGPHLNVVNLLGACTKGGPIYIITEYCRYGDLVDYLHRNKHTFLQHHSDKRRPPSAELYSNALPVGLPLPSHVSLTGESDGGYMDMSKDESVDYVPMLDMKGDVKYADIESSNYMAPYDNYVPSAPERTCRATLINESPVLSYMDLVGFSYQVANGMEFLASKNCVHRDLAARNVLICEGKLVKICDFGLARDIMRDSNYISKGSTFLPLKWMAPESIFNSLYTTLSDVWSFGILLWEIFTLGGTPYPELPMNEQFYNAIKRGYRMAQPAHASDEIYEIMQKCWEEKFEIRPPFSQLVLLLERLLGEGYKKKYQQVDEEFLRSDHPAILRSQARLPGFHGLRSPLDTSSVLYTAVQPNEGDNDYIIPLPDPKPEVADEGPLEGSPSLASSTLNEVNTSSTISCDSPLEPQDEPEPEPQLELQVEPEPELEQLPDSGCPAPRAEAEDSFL
Experimental: as §4

Kd [2]: 2.5 ± 1.87 nM
B1: 13F11-13E8: biparatopic anti-IGF2R VHH construct, 13F11 and 13E8 fused with (Gly-Gly-Gly-Gly-Ser)3 linker (protein)
chain: EVQLVESGGRLVQPGDSLRLSCAASGRTFSDNAMGWFRQAPGKERRFVAGISWAGGSTYYSDSVKGRFTISRDNAKNTVYLQMNSLKPEDTAVYYCAAGLRAWVQRMPKDYNYWGQGTQVTVSSGGGGSGGGGSGGGGSEVQLVESGGGLVQAGGSLRLSCAASRSISPMGWYRQAPGKQRELVAIMPSSGPPIYADSVQGRFTISRDNAKNTVYLQMNSLKPEDTAVYYCNVGGGYWGQGTQVTVSS
modifications: left off: small tags and cut ends
notes: biparatopic anti-IGF2R VHH construct, 13F11 and 13E8 fused with (Gly-Gly-Gly-Gly-Ser)3 linker
internalization in A549 cells [1]: clearly internalized
endocytic rate constant (ke) [3]: around 1.5 min-1
internalization in hIGF2R transfected NIH 3T3 2.2 cells [4]: did internalise
clearance from circulation [5]: could not be detected anymore within two hours after injection
intracellular fluorescence compared to the monovalent construct ([6]; 37° C., from 15 min. onwards): more pronounced increase in intracellular fluorescence
rate of internalization compared to 13E8-13F11 ([6]; 40-min. time period): higher rate of internalization
endocytic rate constant (ke) [7]: around 0.7 min-1
internalization in mock transfected NIH 3T3 2.2 cells [8]: did not internalize

B2: FE-A-A488: 13F11-13E8-ABD conjugated to Alexa Fluor 488 (conjugate)
chain: B1 chain
modifications: left off: large carriers; small tags and cut ends
binding to activated rat HSCs [9]: binds to rat HSCs

Kd [10]: < 1 nM
binding affinity to hPDGFRB [11]: a few orders of magnitude lower
B3: SP28P-SP26P-IRDye800CW: biparatopic SP28P-SP26P conjugated to IRDye800CW (conjugate)
chain: EVQLVESGGGLVQAGGSLRLSCAASGSIVSFNGINWYRQAPGKQREWVGGITQGGNTMYADSVRGRFTISRDNTKNTMYLQMNSLKPEDTAVYYCRRPPVASWGQGTQVTVSSGGGGSGGGGSGGGGSEVQLVESGGGLVQAGGSLRLSCAASGRSFSSSVMGWFRQTPGKEREFVAATRWTAASTHYADSVKGRFTISRDHAENAVFLQMNSLKPEDTAVYYCAAGNYLDTAQYRYNYWGQGTQVTVSS
modifications: left off: small tags and cut ends

Source: patent US12552866B2, “Internalizing binding molecules targeting receptors involved in cell proliferation or in cell differentiation” (LinXis B.V., priority 2019, dated 2026)
